Reference: publication PMC9482650, “Quantitative fragmentomics allow affinity mapping of interactomes” (Nature Communications, 2022)

How the values were obtained:
Assay in all cases: holdup assay
Design in all cases: key: below the threshold = too weak to quantify, mostly under pKd 3.1 to 4
[1] = target: DLG5_1, Q8TDM6
[2] = target: T1, NHERF3_3, Q5T2W1
T1 sequence (Q5T2W1 238-333, limits assumed, looked up): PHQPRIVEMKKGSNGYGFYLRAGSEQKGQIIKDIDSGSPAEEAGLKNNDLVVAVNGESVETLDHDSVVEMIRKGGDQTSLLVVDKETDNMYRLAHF

[3] = target: GRID2IP_1, A4D2P6
Chain of GRID2IP_1, A4D2P6 (A4D2P6 1-87): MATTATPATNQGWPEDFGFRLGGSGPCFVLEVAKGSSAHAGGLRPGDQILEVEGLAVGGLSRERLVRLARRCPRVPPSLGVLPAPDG

[4] = target: T2, NHERF3_1, Q5T2W1
T2 sequence (Q5T2W1 4-100, limits assumed, looked up): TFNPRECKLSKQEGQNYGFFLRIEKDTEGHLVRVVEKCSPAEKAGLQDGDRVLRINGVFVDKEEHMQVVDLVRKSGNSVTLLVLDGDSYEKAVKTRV

[5] = target: MAGI2_2, Q86UL8
Chain of MAGI2_2, Q86UL8 (Q86UL8 410-522): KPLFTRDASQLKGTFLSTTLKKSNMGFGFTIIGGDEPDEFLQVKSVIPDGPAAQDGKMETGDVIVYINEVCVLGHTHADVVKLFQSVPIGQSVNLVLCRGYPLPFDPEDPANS

[6] = target: NHERF4_1, Q86UT5-2
Chain of NHERF4_1, Q86UT5-2 (Q86UT5 other isoform, or with tags, fused parts or gaps): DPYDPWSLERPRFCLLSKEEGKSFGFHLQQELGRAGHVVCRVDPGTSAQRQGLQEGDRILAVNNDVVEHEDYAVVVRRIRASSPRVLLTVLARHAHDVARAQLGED

[7] = target: Inadl_6, Q8NI35
Chain of Inadl_6, Q8NI35 (Q8NI35 1058-1167): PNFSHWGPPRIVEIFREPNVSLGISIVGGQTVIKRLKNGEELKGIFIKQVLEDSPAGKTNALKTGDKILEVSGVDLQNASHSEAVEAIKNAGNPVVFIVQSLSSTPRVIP

[8] = target: PDZRN4_1, Q6ZMN7
Chain of PDZRN4_1, Q6ZMN7 (Q6ZMN7 213-318): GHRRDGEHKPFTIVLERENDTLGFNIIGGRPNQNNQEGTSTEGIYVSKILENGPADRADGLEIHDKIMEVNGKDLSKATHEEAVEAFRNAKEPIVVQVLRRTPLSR

[9] = target: T3, APBA2_2, Q99767
T3 sequence (Q99767 654-744, limits assumed, looked up): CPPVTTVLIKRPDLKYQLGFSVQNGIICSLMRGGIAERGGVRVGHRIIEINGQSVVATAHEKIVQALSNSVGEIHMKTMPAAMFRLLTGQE

[10] = target: Inadl_8, Q8NI35
Chain of Inadl_8, Q8NI35 (Q8NI35 1425-1530): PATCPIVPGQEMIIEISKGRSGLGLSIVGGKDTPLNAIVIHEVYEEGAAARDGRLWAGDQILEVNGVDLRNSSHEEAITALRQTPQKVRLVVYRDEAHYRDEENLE

[11] = target: T4, DFNB31_3, Q9P202
T4 sequence (Q9P202 811-907, limits assumed, looked up): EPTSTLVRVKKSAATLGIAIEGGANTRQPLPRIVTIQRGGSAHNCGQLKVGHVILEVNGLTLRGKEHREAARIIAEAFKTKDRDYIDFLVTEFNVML

[12] = target: DLG2_2, Q15700
Chain of DLG2_2, Q15700 (Q15700 189-283): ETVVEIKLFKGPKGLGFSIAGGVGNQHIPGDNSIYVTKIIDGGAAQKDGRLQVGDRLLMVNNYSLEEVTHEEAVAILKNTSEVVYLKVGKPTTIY

[13] = target: T5, LIN7B, Q9HAP6
T5 sequence (Q9HAP6 88-185, limits assumed, looked up): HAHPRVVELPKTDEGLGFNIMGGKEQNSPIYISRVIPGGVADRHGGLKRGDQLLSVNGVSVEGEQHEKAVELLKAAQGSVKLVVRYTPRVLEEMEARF

[14] = target: GRASP, Q7Z6J2
Chain of GRASP, Q7Z6J2 (Q7Z6J2 96-193): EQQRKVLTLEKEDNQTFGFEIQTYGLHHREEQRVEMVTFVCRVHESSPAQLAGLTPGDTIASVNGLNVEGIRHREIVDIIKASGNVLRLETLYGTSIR

[15] = target: DLG1_2, Q12959
[16] = target: T6, RADIL, Q96JH8
T6 sequence (Q96JH8 971-1071, limits assumed, looked up): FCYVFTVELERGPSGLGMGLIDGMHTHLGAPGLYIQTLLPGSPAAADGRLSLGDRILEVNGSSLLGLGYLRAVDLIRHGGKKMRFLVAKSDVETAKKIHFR

[17] = target: Inadl_2, Q8NI35
Chain of Inadl_2, Q8NI35 (Q8NI35 238-335): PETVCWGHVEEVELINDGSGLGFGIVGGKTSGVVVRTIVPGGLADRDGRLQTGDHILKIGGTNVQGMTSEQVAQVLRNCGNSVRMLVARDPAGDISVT

[18] = target: T7, RHPN1, Q8TCX5
T7 sequence (Q8TCX5 508-602, limits assumed, looked up): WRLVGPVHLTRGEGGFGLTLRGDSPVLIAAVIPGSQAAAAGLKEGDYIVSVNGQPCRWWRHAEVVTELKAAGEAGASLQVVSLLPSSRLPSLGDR

[19] = target: PDLIM1, O00151
Chain of PDLIM1, O00151 (O00151 1-87): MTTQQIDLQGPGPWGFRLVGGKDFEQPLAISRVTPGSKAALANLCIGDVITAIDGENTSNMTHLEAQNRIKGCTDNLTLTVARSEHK

[20] = target: ARHGEF12, Q9NZN5-2
Chain of ARHGEF12, Q9NZN5-2 (Q9NZN5 other isoform, or with tags, fused parts or gaps): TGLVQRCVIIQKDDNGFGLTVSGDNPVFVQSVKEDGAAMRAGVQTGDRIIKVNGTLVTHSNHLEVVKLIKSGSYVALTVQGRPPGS

[21] = target: T8, ARHGAP21, Q5T5U3
T8 sequence (Q5T5U3 45-169, limits assumed, looked up): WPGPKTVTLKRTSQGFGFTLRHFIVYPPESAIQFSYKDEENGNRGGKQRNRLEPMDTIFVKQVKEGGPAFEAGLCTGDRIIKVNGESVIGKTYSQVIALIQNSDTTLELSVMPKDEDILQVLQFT

[22] = target: DLG1_1, Q12959
[23] = target: T9, TIAM2, Q8IVF5
T9 sequence (Q8IVF5 885-986, limits assumed, looked up): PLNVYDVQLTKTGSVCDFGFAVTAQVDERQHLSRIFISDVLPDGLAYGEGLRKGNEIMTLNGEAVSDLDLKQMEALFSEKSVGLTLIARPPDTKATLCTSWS

[24] = target: GIPC2, Q8TF65
Chain of GIPC2, Q8TF65 (Q8TF65 112-203): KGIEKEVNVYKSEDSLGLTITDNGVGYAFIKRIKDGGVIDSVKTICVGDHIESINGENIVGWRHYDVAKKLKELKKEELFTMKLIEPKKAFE

[25] = target: LDB3, O75112
Chain of LDB3, O75112 (O75112 1-94): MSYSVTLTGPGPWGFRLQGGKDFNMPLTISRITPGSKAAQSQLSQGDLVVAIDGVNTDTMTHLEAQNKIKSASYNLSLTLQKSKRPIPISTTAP

[26] = target: Inadl_10, Q8NI35
Chain of Inadl_10, Q8NI35 (Q8NI35 1673-1763): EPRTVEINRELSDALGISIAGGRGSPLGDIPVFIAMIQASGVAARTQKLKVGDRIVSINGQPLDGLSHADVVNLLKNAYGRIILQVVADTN

[27] = target: T10, MPP2, Q14168
T10 sequence (Q14168 180-250, limits assumed, looked up): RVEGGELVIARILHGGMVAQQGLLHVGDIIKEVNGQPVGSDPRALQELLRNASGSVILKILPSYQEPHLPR

[28] = plain residues with an end cap or a label only (N-terminal biotin on a linker: ado-ado)
[29] = plain residues with an end cap or a label only (N-terminal biotin on a linker: ttds)

Chain of DLG5_1, Q8TDM6 (Q8TDM6 617-713): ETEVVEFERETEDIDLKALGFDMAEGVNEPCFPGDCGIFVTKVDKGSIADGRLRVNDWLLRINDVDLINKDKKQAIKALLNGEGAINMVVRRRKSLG

## GFGEERESIL [KIDINS220, Q9ULH0]
[1]; [28]
  pKd: below the threshold
[2]; [28]
  pKd: below the threshold
[3]; [28]
  pKd: below the threshold
[4]; [28]
  pKd: 5.06
[5]; [28]
  pKd: below the threshold
[6]; [28]
  pKd: 3.77
[7]; [28]
  pKd: 4.1
[8]; [28]
  pKd: 4.61
[9]; [28]
  pKd: below the threshold
[10]; [28]
  pKd: below the threshold
[11]; [28]
  pKd: below the threshold
[12]; [28]
  pKd: below the threshold
[13]; [28]
  pKd: below the threshold
[14]; [28]
  pKd: 3.48
[15]; [28]
  pKd: 3.88
[16]; [28]
  pKd: 3.61
[17]; [28]
  pKd: below the threshold
[18]; [28]
  pKd: 4.61
[19]; [28]
  pKd: below the threshold
[20]; [28]
  pKd: 4.13
[21]; [28]
  pKd: 3.9
[22]; [28]
  pKd: below the threshold
[23]; [28]
  pKd: below the threshold
[24]; [28]
  pKd: 3.87
[25]; [28]
  pKd: below the threshold
[26]; [28]
  pKd: below the threshold
[27]; [28]
  pKd: below the threshold

## SEKHFRETEV [HTLV1-TAX1, P03409]
[1]; [29]
  pKd: below the threshold
[2]; [29]
  pKd: below the threshold
[3]; [29]
  pKd: below the threshold
[4]; [29]
  pKd: 4.71
[5]; [29]
  pKd: 4.57
[6]; [29]
  pKd: below the threshold
[7]; [29]
  pKd: 3.69
[8]; [29]
  pKd: 4.9
[9]; [29]
  pKd: below the threshold
[10]; [29]
  pKd: 3.86
[11]; [29]
  pKd: below the threshold
[12]; [29]
  pKd: 5.21
[13]; [29]
  pKd: 3.83
[14]; [29]
  pKd: below the threshold
[15]; [29]
  pKd: 5.75
[16]; [29]
  pKd: below the threshold
[17]; [29]
  pKd: below the threshold
[18]; [29]
  pKd: 4.08
[19]; [29]
  pKd: 3.69
[20]; [29]
  pKd: 3.81
[21]; [29]
  pKd: below the threshold
[22]; [29]
  pKd: 5.19
[23]; [29]
  pKd: below the threshold
[24]; [29]
  pKd: 3.82
[25]; [29]
  pKd: below the threshold
[26]; [29]
  pKd: below the threshold
[27]; [29]
  pKd: below the threshold

## PKRPFVESNV [TANC2, Q9HCD6]
[1]; [29]
  pKd: below the threshold
[2]; [29]
  pKd: below the threshold
[3]; [29]
  pKd: below the threshold
[4]; [29]
  pKd: 3.59
[5]; [29]
  pKd: below the threshold
[6]; [29]
  pKd: below the threshold
[7]; [29]
  pKd: below the threshold
[8]; [29]
  pKd: below the threshold
[9]; [29]
  pKd: below the threshold
[10]; [29]
  pKd: 3.68
[11]; [29]
  pKd: below the threshold
[12]; [29]
  pKd: 4.33
[13]; [29]
  pKd: below the threshold
[14]; [29]
  pKd: below the threshold
[15]; [29]
  pKd: 4.65
[16]; [29]
  pKd: below the threshold
[17]; [29]
  pKd: below the threshold
[18]; [29]
  pKd: 4.09
[19]; [29]
  pKd: below the threshold
[20]; [29]
  pKd: below the threshold
[21]; [29]
  pKd: below the threshold
[22]; [29]
  pKd: 4.31
[23]; [29]
  pKd: below the threshold
[24]; [29]
  pKd: below the threshold
[25]; [29]
  pKd: below the threshold
[26]; [29]
  pKd: below the threshold
[27]; [29]
  pKd: below the threshold

## VNKVWDQSSV [CIT, O14578]
[1]; [29]
  pKd: below the threshold
[2]; [29]
  pKd: below the threshold
[3]; [29]
  pKd: below the threshold
[4]; [29]
  pKd: below the threshold
[5]; [29]
  pKd: below the threshold
[6]; [29]
  pKd: below the threshold
[7]; [29]
  pKd: below the threshold
[8]; [29]
  pKd: below the threshold
[9]; [29]
  pKd: below the threshold
[10]; [29]
  pKd: 4
[11]; [29]
  pKd: below the threshold
[12]; [29]
  pKd: below the threshold
[13]; [29]
  pKd: below the threshold
[14]; [29]
  pKd: 4.33
[15]; [29]
  pKd: 3.48
[16]; [29]
  pKd: below the threshold
[17]; [29]
  pKd: below the threshold
[18]; [29]
  pKd: 3.82
[19]; [29]
  pKd: below the threshold
[20]; [29]
  pKd: below the threshold
[21]; [29]
  pKd: below the threshold
[22]; [29]
  pKd: below the threshold
[23]; [29]
  pKd: below the threshold
[24]; [29]
  pKd: 3.51
[25]; [29]
  pKd: below the threshold
[26]; [29]
  pKd: below the threshold
[27]; [29]
  pKd: below the threshold
